# Experimental data from publication PMC9482650, “Quantitative fragmentomics allow affinity mapping of interactomes” (Nature Communications, 2022).
# T1: APBA3_1, O96018
# T1 sequence (O96018 389-490, limits assumed, looked up): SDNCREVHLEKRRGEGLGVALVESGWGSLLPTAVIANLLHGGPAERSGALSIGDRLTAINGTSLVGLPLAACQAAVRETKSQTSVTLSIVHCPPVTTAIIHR
# T2: GRIP1_5, Q9Y3R0
# T2 sequence (Q9Y3R0 568-668, limits assumed, looked up): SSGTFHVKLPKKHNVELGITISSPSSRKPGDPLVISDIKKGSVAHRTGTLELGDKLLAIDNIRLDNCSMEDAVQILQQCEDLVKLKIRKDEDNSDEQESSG
# T3: PDZRN3_1, Q9UPQ7
# T3 sequence (Q9UPQ7 244-349, limits assumed, looked up): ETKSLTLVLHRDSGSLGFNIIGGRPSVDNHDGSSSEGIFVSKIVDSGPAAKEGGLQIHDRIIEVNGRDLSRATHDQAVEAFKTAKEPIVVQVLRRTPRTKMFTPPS
# T4: TX1BP3, O14907
# T4 sequence (O14907 10-122, limits assumed, looked up): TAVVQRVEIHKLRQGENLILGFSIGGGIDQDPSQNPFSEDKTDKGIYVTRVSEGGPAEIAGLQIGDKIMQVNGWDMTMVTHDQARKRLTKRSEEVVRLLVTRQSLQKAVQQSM
# T5: RADIL, Q96JH8
# T5 sequence (Q96JH8 971-1071, limits assumed, looked up): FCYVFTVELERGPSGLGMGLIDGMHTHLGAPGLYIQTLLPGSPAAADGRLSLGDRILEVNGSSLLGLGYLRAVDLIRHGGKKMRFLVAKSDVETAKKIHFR
# T6: GRIP1_3, Q9Y3R0
# T6 sequence (Q9Y3R0 247-346, limits assumed, looked up): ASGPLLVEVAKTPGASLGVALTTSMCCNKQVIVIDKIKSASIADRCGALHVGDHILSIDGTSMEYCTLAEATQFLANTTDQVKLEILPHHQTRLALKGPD
# T7: DFNB31_1, Q9P202
# T7 sequence (Q9P202 135-233, limits assumed, looked up): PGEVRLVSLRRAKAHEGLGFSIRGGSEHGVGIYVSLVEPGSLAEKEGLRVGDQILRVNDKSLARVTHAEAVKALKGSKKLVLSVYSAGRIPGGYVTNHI
# T8: SNTB1, Q13884
# T8 sequence (Q13884 107-205, limits assumed, looked up): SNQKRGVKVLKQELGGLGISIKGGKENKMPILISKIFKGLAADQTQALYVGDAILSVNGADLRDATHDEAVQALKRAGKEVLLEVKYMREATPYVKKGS
# B1: GRID2, O43424 (peptide)
# chain: GNDPDRGTSI
# B2: SLC2A3, P11169 (peptide)
# chain: EPAKETTTNV
# Biological target: LNX1_3, Q8TBB1
# Sequence (Q8TBB1 500-596): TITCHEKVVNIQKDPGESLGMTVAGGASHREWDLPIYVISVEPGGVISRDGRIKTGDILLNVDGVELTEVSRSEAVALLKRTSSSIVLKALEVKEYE
# Test: holdup assay
# Set-up: key: below the threshold = too weak to quantify, mostly under pKd 3.1 to 4
# Details: plain residues with an end cap or a label only (N-terminal biotin on a linker: ado-ado)
row,Binder,pKd
1,B1,below the threshold
2,B2,below the threshold

# Biological target: LNX1_1, Q8TBB1
# Sequence (Q8TBB1 261-371): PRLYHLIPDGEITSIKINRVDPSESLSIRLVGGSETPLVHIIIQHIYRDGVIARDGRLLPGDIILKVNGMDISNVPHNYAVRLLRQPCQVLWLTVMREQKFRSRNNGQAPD
# Test: holdup assay
# Set-up: key: below the threshold = too weak to quantify, mostly under pKd 3.1 to 4
# Details: plain residues with an end cap or a label only (N-terminal biotin on a linker: ado-ado)
row,Binder,pKd
1,B1,3.67
2,B2,below the threshold

# Biological target: DLG4_3, P78352
# Sequence (P78352 306-403): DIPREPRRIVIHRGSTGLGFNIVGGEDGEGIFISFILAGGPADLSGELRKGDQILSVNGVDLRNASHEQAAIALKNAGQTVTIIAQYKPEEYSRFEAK
# Test: holdup assay
# Set-up: key: below the threshold = too weak to quantify, mostly under pKd 3.1 to 4
# Details: plain residues with an end cap or a label only (N-terminal biotin on a linker: ado-ado)
row,Binder,pKd
1,B1,below the threshold
2,B2,3.7

# Biological target: IL16_4, Q14005
# Sequence (Q14005 1229-1329): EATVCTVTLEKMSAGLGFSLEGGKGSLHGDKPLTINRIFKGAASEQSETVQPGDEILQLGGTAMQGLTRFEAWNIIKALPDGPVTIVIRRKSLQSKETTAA
# Test: holdup assay
# Set-up: key: below the threshold = too weak to quantify, mostly under pKd 3.1 to 4
# Details: plain residues with an end cap or a label only (N-terminal biotin on a linker: ado-ado)
row,Binder,pKd
1,B1,below the threshold
2,B2,below the threshold

# Biological target: MAGI2_6, Q86UL8
# Sequence (Q86UL8 1141-1229): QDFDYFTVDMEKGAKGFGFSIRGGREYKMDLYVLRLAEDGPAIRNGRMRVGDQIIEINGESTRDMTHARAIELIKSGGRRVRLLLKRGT
# Test: holdup assay
# Set-up: key: below the threshold = too weak to quantify, mostly under pKd 3.1 to 4
# Details: plain residues with an end cap or a label only (N-terminal biotin on a linker: ado-ado)
row,Binder,pKd
1,B1,3.58
2,B2,3.97

# Biological target: T1, APBA3_1, O96018
# Test: holdup assay
# Set-up: key: below the threshold = too weak to quantify, mostly under pKd 3.1 to 4
# Details: plain residues with an end cap or a label only (N-terminal biotin on a linker: ado-ado)
row,Binder,pKd
1,B1,below the threshold
2,B2,below the threshold

# Biological target: SCRIB_3, Q14160
# Sequence (Q14160 999-1103): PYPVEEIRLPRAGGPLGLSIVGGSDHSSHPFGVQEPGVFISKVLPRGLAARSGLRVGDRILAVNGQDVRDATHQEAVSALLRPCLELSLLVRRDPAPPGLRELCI
# Test: holdup assay
# Set-up: key: below the threshold = too weak to quantify, mostly under pKd 3.1 to 4
# Details: plain residues with an end cap or a label only (N-terminal biotin on a linker: ado-ado)
row,Binder,pKd
1,B1,4.29
2,B2,3.82

# Biological target: LNX1_2, Q8TBB1
# Sequence (Q8TBB1 371-470): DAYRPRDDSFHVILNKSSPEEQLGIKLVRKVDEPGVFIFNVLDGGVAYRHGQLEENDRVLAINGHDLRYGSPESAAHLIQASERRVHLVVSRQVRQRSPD
# Test: holdup assay
# Set-up: key: below the threshold = too weak to quantify, mostly under pKd 3.1 to 4
# Details: plain residues with an end cap or a label only (N-terminal biotin on a linker: ado-ado)
row,Binder,pKd
1,B1,below the threshold
2,B2,below the threshold

# Biological target: T2, GRIP1_5, Q9Y3R0
# Test: holdup assay
# Set-up: key: below the threshold = too weak to quantify, mostly under pKd 3.1 to 4
# Details: plain residues with an end cap or a label only (N-terminal biotin on a linker: ado-ado)
row,Binder,pKd
1,B1,below the threshold
2,B2,below the threshold

# Biological target: GRIP2_4, Q9C0E4
# Sequence (Q9C0E4 446-548): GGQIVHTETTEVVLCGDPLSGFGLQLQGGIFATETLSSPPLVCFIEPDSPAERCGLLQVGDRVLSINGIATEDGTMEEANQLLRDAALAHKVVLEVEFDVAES
# Test: holdup assay
# Set-up: key: below the threshold = too weak to quantify, mostly under pKd 3.1 to 4
# Details: plain residues with an end cap or a label only (N-terminal biotin on a linker: ado-ado)
row,Binder,pKd
1,B1,below the threshold
2,B2,below the threshold

# Biological target: MAGI1_1, Q96QZ7
# Sequence (Q96QZ7 1-106): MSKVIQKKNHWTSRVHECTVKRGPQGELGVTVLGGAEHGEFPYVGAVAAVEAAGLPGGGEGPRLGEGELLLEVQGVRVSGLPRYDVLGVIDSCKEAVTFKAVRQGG
# Test: holdup assay
# Set-up: key: below the threshold = too weak to quantify, mostly under pKd 3.1 to 4
# Details: plain residues with an end cap or a label only (N-terminal biotin on a linker: ado-ado)
row,Binder,pKd
1,B1,below the threshold
2,B2,below the threshold

# Biological target: GIPC2, Q8TF65
# Sequence (Q8TF65 112-203): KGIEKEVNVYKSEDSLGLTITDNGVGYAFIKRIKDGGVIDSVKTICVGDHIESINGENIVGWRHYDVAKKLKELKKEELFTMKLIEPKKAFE
# Test: holdup assay
# Set-up: key: below the threshold = too weak to quantify, mostly under pKd 3.1 to 4
# Details: plain residues with an end cap or a label only (N-terminal biotin on a linker: ado-ado)
row,Binder,pKd
1,B1,below the threshold
2,B2,below the threshold

# Biological target: T3, PDZRN3_1, Q9UPQ7
# Test: holdup assay
# Set-up: key: below the threshold = too weak to quantify, mostly under pKd 3.1 to 4
# Details: plain residues with an end cap or a label only (N-terminal biotin on a linker: ado-ado)
row,Binder,pKd
1,B1,3.88
2,B2,below the threshold

# Biological target: PICK1, Q9NRD5
# Sequence (Q9NRD5 17-115): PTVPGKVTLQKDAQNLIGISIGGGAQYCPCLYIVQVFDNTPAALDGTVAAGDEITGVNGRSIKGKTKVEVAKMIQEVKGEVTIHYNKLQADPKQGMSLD
# Test: holdup assay
# Set-up: key: below the threshold = too weak to quantify, mostly under pKd 3.1 to 4
# Details: plain residues with an end cap or a label only (N-terminal biotin on a linker: ado-ado)
row,Binder,pKd
1,B1,below the threshold
2,B2,below the threshold

# Biological target: MAGI2_5, Q86UL8
# Sequence (Q86UL8 915-1017): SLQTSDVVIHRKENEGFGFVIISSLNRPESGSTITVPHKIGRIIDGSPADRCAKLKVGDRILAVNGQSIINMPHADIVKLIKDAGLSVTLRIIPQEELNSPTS
# Test: holdup assay
# Set-up: key: below the threshold = too weak to quantify, mostly under pKd 3.1 to 4
# Details: plain residues with an end cap or a label only (N-terminal biotin on a linker: ado-ado)
row,Binder,pKd
1,B1,below the threshold
2,B2,below the threshold

# Biological target: GRIP2_7, Q9C0E4
# Sequence (Q9C0E4 934-1023): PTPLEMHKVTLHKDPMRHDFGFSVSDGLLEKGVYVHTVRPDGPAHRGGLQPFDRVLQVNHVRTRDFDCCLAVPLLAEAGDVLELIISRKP
# Test: holdup assay
# Set-up: key: below the threshold = too weak to quantify, mostly under pKd 3.1 to 4
# Details: plain residues with an end cap or a label only (N-terminal biotin on a linker: ado-ado)
row,Binder,pKd
1,B1,below the threshold
2,B2,below the threshold

# Biological target: T4, TX1BP3, O14907
# Test: holdup assay
# Set-up: key: below the threshold = too weak to quantify, mostly under pKd 3.1 to 4
# Details: plain residues with an end cap or a label only (N-terminal biotin on a linker: ado-ado)
row,Binder,pKd
1,B1,below the threshold
2,B2,4.12

# Biological target: SNX27, Q96L92
# Test: holdup assay
# Set-up: key: below the threshold = too weak to quantify, mostly under pKd 3.1 to 4
# Details: plain residues with an end cap or a label only (N-terminal biotin on a linker: ado-ado)
row,Binder,pKd
1,B1,below the threshold
2,B2,4.95

# Biological target: T5, RADIL, Q96JH8
# Test: holdup assay
# Set-up: key: below the threshold = too weak to quantify, mostly under pKd 3.1 to 4
# Details: plain residues with an end cap or a label only (N-terminal biotin on a linker: ado-ado)
row,Binder,pKd
1,B1,below the threshold
2,B2,3.62

# Biological target: Inadl_6, Q8NI35
# Sequence (Q8NI35 1058-1167): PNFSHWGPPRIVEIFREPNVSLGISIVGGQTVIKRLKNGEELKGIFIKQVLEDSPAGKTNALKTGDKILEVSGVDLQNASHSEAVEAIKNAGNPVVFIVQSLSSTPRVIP
# Test: holdup assay
# Set-up: key: below the threshold = too weak to quantify, mostly under pKd 3.1 to 4
# Details: plain residues with an end cap or a label only (N-terminal biotin on a linker: ado-ado)
row,Binder,pKd
1,B1,below the threshold
2,B2,below the threshold

# Biological target: PDZRN4_1, Q6ZMN7
# Sequence (Q6ZMN7 213-318): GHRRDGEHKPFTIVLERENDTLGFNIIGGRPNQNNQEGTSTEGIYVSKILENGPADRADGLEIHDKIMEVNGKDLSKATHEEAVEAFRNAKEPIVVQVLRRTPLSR
# Test: holdup assay
# Set-up: key: below the threshold = too weak to quantify, mostly under pKd 3.1 to 4
# Details: plain residues with an end cap or a label only (N-terminal biotin on a linker: ado-ado)
row,Binder,pKd
1,B1,3.49
2,B2,below the threshold

# Biological target: T6, GRIP1_3, Q9Y3R0
# Test: holdup assay
# Set-up: key: below the threshold = too weak to quantify, mostly under pKd 3.1 to 4
# Details: plain residues with an end cap or a label only (N-terminal biotin on a linker: ado-ado)
row,Binder,pKd
1,B1,below the threshold
2,B2,below the threshold

# Biological target: Inadl_1, Q8NI35
# Sequence (Q8NI35 113-229): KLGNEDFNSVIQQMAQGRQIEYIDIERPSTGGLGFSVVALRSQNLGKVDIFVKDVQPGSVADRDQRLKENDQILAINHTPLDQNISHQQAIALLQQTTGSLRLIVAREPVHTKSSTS
# Test: holdup assay
# Set-up: key: below the threshold = too weak to quantify, mostly under pKd 3.1 to 4
# Details: plain residues with an end cap or a label only (N-terminal biotin on a linker: ado-ado)
row,Binder,pKd
1,B1,below the threshold
2,B2,below the threshold

# Biological target: T7, DFNB31_1, Q9P202
# Test: holdup assay
# Set-up: key: below the threshold = too weak to quantify, mostly under pKd 3.1 to 4
# Details: plain residues with an end cap or a label only (N-terminal biotin on a linker: ado-ado)
row,Binder,pKd
1,B1,4.46
2,B2,3.61

# Biological target: T8, SNTB1, Q13884
# Test: holdup assay
# Set-up: key: below the threshold = too weak to quantify, mostly under pKd 3.1 to 4
# Details: plain residues with an end cap or a label only (N-terminal biotin on a linker: ado-ado)
row,Binder,pKd
1,B1,below the threshold
2,B2,4.57

# Biological target: FRMPD4, Q14CM0
# Sequence (Q14CM0 67-160): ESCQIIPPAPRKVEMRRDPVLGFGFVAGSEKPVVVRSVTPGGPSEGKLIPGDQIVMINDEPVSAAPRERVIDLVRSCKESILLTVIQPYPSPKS
# Test: holdup assay
# Set-up: key: below the threshold = too weak to quantify, mostly under pKd 3.1 to 4
# Details: plain residues with an end cap or a label only (N-terminal biotin on a linker: ado-ado)
row,Binder,pKd
1,B1,below the threshold
2,B2,3.52

# Biological target: DLG5_1, Q8TDM6
# Sequence (Q8TDM6 617-713): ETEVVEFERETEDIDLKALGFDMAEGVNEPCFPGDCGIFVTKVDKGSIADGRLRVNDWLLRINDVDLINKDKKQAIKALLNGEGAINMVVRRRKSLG
# Test: holdup assay
# Set-up: key: below the threshold = too weak to quantify, mostly under pKd 3.1 to 4
# Details: plain residues with an end cap or a label only (N-terminal biotin on a linker: ado-ado)
row,Binder,pKd
1,B1,below the threshold
2,B2,below the threshold

# Biological target: MAGI1_2, Q96QZ7
# Sequence (Q96QZ7 456-580): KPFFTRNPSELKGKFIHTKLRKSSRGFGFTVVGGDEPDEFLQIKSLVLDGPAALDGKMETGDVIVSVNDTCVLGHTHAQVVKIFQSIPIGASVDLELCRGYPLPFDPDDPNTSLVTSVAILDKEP
# Test: holdup assay
# Set-up: key: below the threshold = too weak to quantify, mostly under pKd 3.1 to 4
# Details: plain residues with an end cap or a label only (N-terminal biotin on a linker: ado-ado)
row,Binder,pKd
1,B1,below the threshold
2,B2,below the threshold

# Biological target: GORASP1, Q9BQQ3
# Sequence (Q9BQQ3 1-208): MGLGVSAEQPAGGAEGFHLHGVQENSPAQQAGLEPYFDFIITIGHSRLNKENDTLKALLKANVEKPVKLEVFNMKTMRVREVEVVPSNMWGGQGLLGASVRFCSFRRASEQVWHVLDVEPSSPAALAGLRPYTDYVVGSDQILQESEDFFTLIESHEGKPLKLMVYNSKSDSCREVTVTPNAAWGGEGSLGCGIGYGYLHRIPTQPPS
# Test: holdup assay
# Set-up: key: below the threshold = too weak to quantify, mostly under pKd 3.1 to 4
# Details: plain residues with an end cap or a label only (N-terminal biotin on a linker: ado-ado)
row,Binder,pKd
1,B1,below the threshold
2,B2,below the threshold
